The supplement of paper PMC9112550, “Optimization of the antimicrobial peptide Bac7 by deep mutational scanning” (BMC Biology, 2022)

Test system: Escherichia coli TOP10
Assay: shrunken log2 fold change of peptide-encoding DNA abundance (4.5 h post-induction vs induction); higher = less antimicrobial activity (less host growth inhibition)
Details: time post-induction: 4.5 h; library: site-saturation at positions 5, 18, 19, 20
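Note: peptides expressed intracellularly from a pBAD plasmid library in pooled LB shake-flask culture, induced with 0.3% L-arabinose, DNA abundance read by NGS, three biological replicates, DESeq2 with apeglm shrinkage.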

Sequence	shrunken log2 fold change
RRIRERPPRLPRPRPRPDINPRP	-0.239
RRIRDRPPRLPRPRPRPFYFPRP	-0.262
RRIRMRPPRLPRPRPRPGNHPRP	-0.0526
RRIRTRPPRLPRPRPRPGKGPRP	0.0141
RRIRLRPPRLPRPRPRPDQSPRP	0.0621
RRIRFRPPRLPRPRPRPWRYPRP	-0.161
RRIRSRPPRLPRPRPRPIMLPRP	-0.156
RRIRWRPPRLPRPRPRPHEVPRP	0.169
RRIRKRPPRLPRPRPRPSNYPRP	-0.312
RRIRSRPPRLPRPRPRPDEIPRP	0.139
RRIRMRPPRLPRPRPRPENEPRP	2.96
RRIRYRPPRLPRPRPRPHIEPRP	-1.47
RRIRQRPPRLPRPRPRPCRQPRP	0.0342
RRIRVRPPRLPRPRPRPLSKPRP	-0.303
RRIRCRPPRLPRPRPRPHQEPRP	-0.0176
RRIRCRPPRLPRPRPRPVMEPRP	-0.0475
RRIRPRPPRLPRPRPRPPGCPRP	0.264
RRIRWRPPRLPRPRPRPRDQPRP	-0.033
RRIRHRPPRLPRPRPRPRAMPRP	0.592
RRIRCRPPRLPRPRPRPTLCPRP	-0.0107
RRIRCRPPRLPRPRPRPLDPPRP	-0.122
RRIRVRPPRLPRPRPRPGCAPRP	0.757
RRIRDRPPRLPRPRPRPVYWPRP	-0.469
RRIRSRPPRLPRPRPRPDSGPRP	-0.02
RRIRDRPPRLPRPRPRPWWNPRP	-0.0921

Sequence	shrunken log2 fold change
RRIRVRPPRLPRPRPRPDNTPRP	-0.426
RRIRDRPPRLPRPRPRPHNWPRP	-0.144
RRIRSRPPRLPRPRPRPSIWPRP	0.266
RRIRGRPPRLPRPRPRPVKCPRP	-0.118
RRIRIRPPRLPRPRPRPFAAPRP	-0.258
RRIRVRPPRLPRPRPRPAPMPRP	0.324
RRIRCRPPRLPRPRPRPPYGPRP	-0.266
RRIRLRPPRLPRPRPRPTHRPRP	0.101
RRIRPRPPRLPRPRPRPKKTPRP	-0.107
RRIRYRPPRLPRPRPRPCSFPRP	-0.0048
RRIRSRPPRLPRPRPRPRLPPRP	0.315
RRIRIRPPRLPRPRPRPYKYPRP	-0.89
RRIRRRPPRLPRPRPRPTLWPRP	0.563
RRIRRRPPRLPRPRPRPLWYPRP	-0.166
RRIRIRPPRLPRPRPRPHYTPRP	-0.591
RRIRARPPRLPRPRPRPVGLPRP	0.321
RRIRTRPPRLPRPRPRPYELPRP	-0.854
RRIRERPPRLPRPRPRPFWTPRP	-0.24
RRIRVRPPRLPRPRPRPHQCPRP	0.00485
RRIRCRPPRLPRPRPRPETKPRP	0.0774
RRIRWRPPRLPRPRPRPAHTPRP	-0.172
RRIRGRPPRLPRPRPRPHYMPRP	0.00569
RRIRERPPRLPRPRPRPIEEPRP	-0.0104
RRIRGRPPRLPRPRPRPHQQPRP	0.101
RRIRTRPPRLPRPRPRPARYPRP	0.189

Sequence	shrunken log2 fold change
RRIRFRPPRLPRPRPRPMKTPRP	-0.0807
RRIRHRPPRLPRPRPRPFVGPRP	-0.31
RRIRWRPPRLPRPRPRPGAEPRP	1.17
RRIRHRPPRLPRPRPRPNKFPRP	-0.284
RRIRGRPPRLPRPRPRPGPHPRP	0.57
RRIRDRPPRLPRPRPRPDTDPRP	0.0647
RRIRARPPRLPRPRPRPPQEPRP	0.854
RRIRVRPPRLPRPRPRPGKNPRP	-0.22
RRIRIRPPRLPRPRPRPKWGPRP	-0.00761
RRIRHRPPRLPRPRPRPAQKPRP	-0.0418
RRIRYRPPRLPRPRPRPVMGPRP	-0.0133
RRIRERPPRLPRPRPRPDYVPRP	-0.00136
RRIRPRPPRLPRPRPRPNDLPRP	-0.111
RRIRWRPPRLPRPRPRPAQVPRP	0.565
RRIRCRPPRLPRPRPRPVMRPRP	0.16
RRIRYRPPRLPRPRPRPKDIPRP	-0.109
RRIRGRPPRLPRPRPRPELFPRP	1.63
RRIRYRPPRLPRPRPRPDGSPRP	-0.317
RRIRDRPPRLPRPRPRPWWLPRP	0.0758
RRIRYRPPRLPRPRPRPTMIPRP	-0.455
RRIRPRPPRLPRPRPRPDKVPRP	-0.249
RRIRPRPPRLPRPRPRPWSCPRP	-0.165
RRIRVRPPRLPRPRPRPANEPRP	-0.174
RRIRDRPPRLPRPRPRPIWPPRP	0.0998
RRIRKRPPRLPRPRPRPIMKPRP	0.16

Sequence	shrunken log2 fold change
RRIRRRPPRLPRPRPRPVEWPRP	-0.182
RRIRIRPPRLPRPRPRPSYSPRP	-0.694
RRIRNRPPRLPRPRPRPEWAPRP	0.0317
RRIRCRPPRLPRPRPRPTYDPRP	-0.609
RRIRWRPPRLPRPRPRPSQWPRP	-0.0949
RRIRMRPPRLPRPRPRPPKCPRP	0.0414
RRIRHRPPRLPRPRPRPHQQPRP	0.0121
RRIRKRPPRLPRPRPRPKEEPRP	0.0277
RRIRNRPPRLPRPRPRPMVLPRP	0.0232
RRIRNRPPRLPRPRPRPLEEPRP	0.216
RRIRWRPPRLPRPRPRPECEPRP	0.912
RRIRLRPPRLPRPRPRPYQIPRP	-0.489
RRIRNRPPRLPRPRPRPAPMPRP	0.237
RRIRFRPPRLPRPRPRPKQPPRP	0.137
RRIRCRPPRLPRPRPRPVVCPRP	0.113
RRIRWRPPRLPRPRPRPADIPRP	0.0169
RRIRHRPPRLPRPRPRPVTVPRP	-0.179
RRIRRRPPRLPRPRPRPKTVPRP	0.233
RRIRDRPPRLPRPRPRPNWQPRP	0.00408
RRIRARPPRLPRPRPRPGWKPRP	0.167
RRIRYRPPRLPRPRPRPWKHPRP	-0.0695
RRIRKRPPRLPRPRPRPYSCPRP	-0.0242
RRIRYRPPRLPRPRPRPNENPRP	-0.744
RRIRTRPPRLPRPRPRPFPTPRP	0.105
RRIRNRPPRLPRPRPRPGTIPRP	-0.316

Sequence	shrunken log2 fold change
RRIRNRPPRLPRPRPRPLPIPRP	-0.299
RRIRNRPPRLPRPRPRPENAPRP	-0.133
RRIRMRPPRLPRPRPRPVCWPRP	0.833
RRIRPRPPRLPRPRPRPHIYPRP	-0.576
RRIRNRPPRLPRPRPRPPYHPRP	-0.362
RRIRSRPPRLPRPRPRPATSPRP	0.0483
RRIRNRPPRLPRPRPRPSIFPRP	-0.662
RRIRTRPPRLPRPRPRPQNWPRP	-0.265
RRIRCRPPRLPRPRPRPIQQPRP	-0.0847
RRIRMRPPRLPRPRPRPKMQPRP	0.995
RRIRKRPPRLPRPRPRPEHFPRP	0.0394
RRIRDRPPRLPRPRPRPRGFPRP	0.586
RRIRFRPPRLPRPRPRPWSYPRP	-0.48
RRIRDRPPRLPRPRPRPRLPPRP	0.4
RRIRSRPPRLPRPRPRPRHHPRP	-0.163
RRIRCRPPRLPRPRPRPPTCPRP	0.183
RRIRTRPPRLPRPRPRPEHGPRP	0.0391
RRIRWRPPRLPRPRPRPMPLPRP	-0.0398
RRIRLRPPRLPRPRPRPDTKPRP	-0.122
RRIRIRPPRLPRPRPRPKHSPRP	-0.447
RRIRSRPPRLPRPRPRPTETPRP	0.0721
RRIRIRPPRLPRPRPRPWPWPRP	0.0338
RRIRLRPPRLPRPRPRPGEFPRP	2.05
RRIRRRPPRLPRPRPRPLWRPRP	0.348
RRIRSRPPRLPRPRPRPYIWPRP	-0.108

Sequence	shrunken log2 fold change
RRIRTRPPRLPRPRPRPAIGPRP	0.1
RRIRRRPPRLPRPRPRPDGWPRP	1.45
RRIRQRPPRLPRPRPRPQDDPRP	-0.0165
RRIRIRPPRLPRPRPRPLNKPRP	-0.398
RRIRVRPPRLPRPRPRPGRWPRP	0.649
RRIRKRPPRLPRPRPRPKQLPRP	0.417
RRIRFRPPRLPRPRPRPYFEPRP	-0.617
RRIRHRPPRLPRPRPRPDQLPRP	-0.51
RRIRYRPPRLPRPRPRPDREPRP	-0.15
RRIRDRPPRLPRPRPRPCFAPRP	0.512
RRIRLRPPRLPRPRPRPNFPPRP	-0.00674
RRIRPRPPRLPRPRPRPWHFPRP	-0.12
RRIRFRPPRLPRPRPRPIFPPRP	-0.222
RRIRKRPPRLPRPRPRPTTIPRP	0.259
RRIRLRPPRLPRPRPRPHAAPRP	-0.343
RRIRMRPPRLPRPRPRPNCEPRP	0.247
RRIRDRPPRLPRPRPRPMCQPRP	0.0359
RRIRCRPPRLPRPRPRPWRKPRP	0.119
RRIRDRPPRLPRPRPRPKPIPRP	0.106
RRIRYRPPRLPRPRPRPSPGPRP	-0.726
RRIRNRPPRLPRPRPRPDALPRP	0.0233
RRIRGRPPRLPRPRPRPNKFPRP	-0.106
RRIRPRPPRLPRPRPRPGIEPRP	-0.00839
RRIRNRPPRLPRPRPRPYHFPRP	-0.309
RRIRWRPPRLPRPRPRPYLYPRP	-0.216
